Results taken from patent JP2006246896A.

Target: ヒトEGFレセプター(細胞表面に発現) (human) (UniProt P00533)
Assay: cell ELISA on glutaraldehyde-fixed A431 cells, compared with chimeric C225

B1: 再形成ヒトH225抗体(225RKA/225RHA) (antibody, V domains shown)
VH: EVQLVESGGGLVQPGGSLRLSCAVSGFSLTNYGVHWVRQATGKGLEWLGVIWSGGNTDYNTPFTSRLTISKENAKNSLYLQMNSLRAGDTAVYYCARALTYYDYEFAYWGQGTM
VL: EIVLTQSPATLSLSPGERATLSCRASQSIGTNIHWYQQRPGQAPRLLIKYASESISGIPARFSGSGSGTDFTLTISSLEPEDFAVYYCQQNNNWPTTFGGG
相対親和力 (relative to chimeric C225): 65%
